Results on three molecules are retold here after patent publication US10428140B2, “Anti-EphA4 antibody” (EISAI R&D MANAGEMENT CO., LTD., priority 2015, dated 2019).

Where a chain is given by its changes, count along the chain named.

To fix the notation:
B1: 67 (antibody, V domains shown)
VH: QIQLVQSGSELKKPGASVKVSCKASGYTFTDYSMHWVRQAPGQGLKWMGWINTETGEPTYAQGFTGRFVFSLDTSVSTAYLQISSLKAEDTAVYYCARIPLYYYGSRYWYFDVWGQGTTVTVSS
VL: DIQMTQSPSSLSASVGDRVTITCRASENIYRNLAWYQQKPGKAPKLLVYAATNLADGVPSRFSGSGSGTDYTLTISSLQPEDFATYYCQHFWGTPWTFGQGTKVEIK
modifications: synthetic humanized antibody heavy chain variable region sequence; synthetic humanized antibody light chain variable region sequence
B2: 78 (antibody, V domains shown)
VH: B1 VH with I2V, Q62D, G63D, T65K
VL: B1 VL
modifications: synthetic humanized antibody heavy chain variable region sequence; synthetic humanized antibody light chain variable region sequence
B3: 77 (antibody, V domains shown)
VH: B1 VH with I2V, K46E, Q62D, G63D, T65K
VL: B1 VL
modifications: synthetic humanized antibody heavy chain variable region sequence; synthetic humanized antibody light chain variable region sequence

Usually Kd stands for the concentration at which binding is half-saturated. High values mean weaker binding, low ones tighter binding.

T1 sequence (P54764 20-547): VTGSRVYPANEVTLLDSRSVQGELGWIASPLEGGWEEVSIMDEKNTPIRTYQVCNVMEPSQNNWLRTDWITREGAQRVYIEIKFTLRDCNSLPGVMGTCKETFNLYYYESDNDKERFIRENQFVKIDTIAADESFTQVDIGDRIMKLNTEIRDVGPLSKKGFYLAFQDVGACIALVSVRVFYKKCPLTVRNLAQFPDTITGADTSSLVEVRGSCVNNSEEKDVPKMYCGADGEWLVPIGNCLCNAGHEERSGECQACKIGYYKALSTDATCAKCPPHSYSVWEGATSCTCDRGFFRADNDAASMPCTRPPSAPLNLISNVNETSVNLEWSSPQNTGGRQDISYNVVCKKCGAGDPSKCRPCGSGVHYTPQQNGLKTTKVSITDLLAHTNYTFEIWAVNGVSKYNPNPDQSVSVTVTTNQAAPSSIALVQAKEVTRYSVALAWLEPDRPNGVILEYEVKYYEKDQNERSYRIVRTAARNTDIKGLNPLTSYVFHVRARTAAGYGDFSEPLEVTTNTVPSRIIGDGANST

The first experiment concerns the target T1, human EphA4 (Homo sapiens, UniProt P54764).
T1 construct: made in house; not restated for the human SEAP-His protein
In words: Affinity of humanized antibodies by SPR (Biacore T200). The class given is binding. Conditions: human EphA4 extracellular region-SEAP-His; 1:1 binding model. In short, it runs like this:
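Humanized antibodies captured on protein A chip (antibody A via immobilized rat anti-mouse IgG1) at about 30 to 60 RU in HBS-EP; human EphA4 extracellular region-SEAP-His injected single-cycle at 0.6 to 50 nM, 120 s association, 900 s dissociation. KD = kd/ka from 1:1 binding fits.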
On the technique in general: Surface plasmon resonance follows binding to a sensor surface in real time, without labels.
The molecule B1 had a ka of 330000 M⁻¹ s⁻¹ and a kd of 0.00035 s⁻¹.
B2 registered a ka of 340000 M⁻¹ s⁻¹ and a kd of 0.00039 s⁻¹.
The corresponding values for B3 are 410000 M⁻¹ s⁻¹ and 0.00058 s⁻¹.

The same experiment, now with this note: human EphA4 extracellular region-SEAP-His; KD=kd/ka.
B1 had a Kd of 1.1 nM.
On the same count and under the same terms, next, B2: 1.1 nM.
The molecule B3 came in with a Kd of 1.4 nM.

Another experiment deals with T2, human EphA2 (Homo sapiens, UniProt P29317).
T2 construct: a protein of the extracellular region of each human Eph receptor fused with the SEAP protein and the His tag; made in house; host or cells: Expi293F cells (culture supernatant)
T2 sequence (P29317 24-537 limits assumed): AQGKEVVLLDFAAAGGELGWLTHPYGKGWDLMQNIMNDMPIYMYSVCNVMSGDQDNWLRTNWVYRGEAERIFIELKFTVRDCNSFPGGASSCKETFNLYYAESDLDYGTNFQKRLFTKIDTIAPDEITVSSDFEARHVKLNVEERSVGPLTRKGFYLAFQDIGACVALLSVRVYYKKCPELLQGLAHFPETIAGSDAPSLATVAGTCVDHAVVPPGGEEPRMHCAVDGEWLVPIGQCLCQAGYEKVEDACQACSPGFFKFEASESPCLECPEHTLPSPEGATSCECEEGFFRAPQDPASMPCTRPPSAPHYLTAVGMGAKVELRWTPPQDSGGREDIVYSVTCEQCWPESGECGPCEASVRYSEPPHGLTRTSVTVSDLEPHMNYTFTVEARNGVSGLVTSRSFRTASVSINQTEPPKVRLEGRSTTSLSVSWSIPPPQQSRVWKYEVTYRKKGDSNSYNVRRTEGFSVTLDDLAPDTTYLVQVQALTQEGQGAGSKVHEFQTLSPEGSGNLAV
Put plainly: Selectivity ELISA of humanized antibodies for human Eph receptor. The class given is binding. As to conditions: coated protein 1 nM. In short, it runs like this: (§1)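 Extracellular domains of human Eph receptors fused to SEAP-His were expressed in Expi293F cells for 5 days and captured from supernatant (1 nM final) on anti-His-coated plates. Humanized anti-EphA4 antibodies were incubated 1 h at room temperature, then HRP anti-IgG secondary, TMB substrate, and absorbance at 450 nm.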
In the case of B1, the “hEphA2-SEAP-: absorbance at 450 nm, percentage with respect to hEphA4-SEAP-His as 100%” value was determined as 4.6%.
Same read-out and setting: the value for B2 was 4.9%; that for B3 was 4.5%.

Another experiment deals with T3, human EphA6 (Homo sapiens, UniProt Q9UF33).
T3 construct: a protein of the extracellular region of each human Eph receptor fused with the SEAP protein and the His tag; made in house; host or cells: Expi293F cells (culture supernatant)
T3 sequence (Q9UF33 23-550 limits assumed): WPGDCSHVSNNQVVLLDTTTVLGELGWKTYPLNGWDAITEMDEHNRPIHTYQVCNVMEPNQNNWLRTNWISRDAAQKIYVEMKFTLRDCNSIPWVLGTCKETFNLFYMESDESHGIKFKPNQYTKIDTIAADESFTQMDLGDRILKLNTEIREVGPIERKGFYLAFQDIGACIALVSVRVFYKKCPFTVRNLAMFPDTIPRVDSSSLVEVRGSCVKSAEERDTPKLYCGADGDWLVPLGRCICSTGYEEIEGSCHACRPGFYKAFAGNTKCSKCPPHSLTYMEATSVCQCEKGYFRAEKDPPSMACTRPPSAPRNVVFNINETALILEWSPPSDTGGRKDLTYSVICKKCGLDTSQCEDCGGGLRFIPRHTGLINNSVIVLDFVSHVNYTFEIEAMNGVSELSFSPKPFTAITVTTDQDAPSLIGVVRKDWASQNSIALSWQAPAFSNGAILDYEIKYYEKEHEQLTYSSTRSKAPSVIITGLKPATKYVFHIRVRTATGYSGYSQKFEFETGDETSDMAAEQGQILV
The experiment is described as above. It counts as binding. Conditions: coated protein 1 nM. In short, it runs like this: as §1
On to B1, for which the “hEphA6-SEAP-: absorbance at 450 nm, percentage with respect to hEphA4-SEAP-His as 100%” value worked out at 7.3%.
As for B2, the “hEphA6-SEAP-: absorbance at 450 nm, percentage with respect to hEphA4-SEAP-His as 100%” value was 10.0%.
On the same count and under the same terms, next, B3: 6.0%.
